Test results: US20100227400A1 (published 2010)
Where a chain is given by its changes, count along the chain named. Names and notes keep the numbering of the source.

Key:
[1] = target: T1, DsRed fused downstream of the Gal4 DNA binding domain (pGBT9) (Discosoma sp.); assay: yeast two hybrid, negative control
T1 construct: range 1-147; also called DsRed-prey
Experimental: Yeast two hybrid assays were also performed. […] Alternatively, the yeast were grown on filters placed on plates lacking tryptophan and leucine to select for the bait and prey plasmids. After overnight growth, the filters were removed from the plates, frozen in liquid nitrogen, thawed, and incubated in X-gal overnight at 30° C. and two days at 4° C. to test for β-galactosidase activity (assayed by blue color development).

[2] = target: the molecule itself; assay: oligomeric state of the mutant, self-association
[3] = target: the molecule itself; assay: non-denaturing polyacrylamide gel electrophoresis, self-association
Experimental: The mutant proteins were prepared following standard methodology and analyzed with polyacrylamide gel electrophoresis as described (Baird et al., supra, 2000). […] This solution was centrifuged in a Beckman XL-1 analytical ultracentrifuge in PBS at 10,000 rpm, 12,000 rpm, 14,000 rpm, and 20,000 rpm.
No attempt was made to disrupt the A:B and C:D interfaces.

[4] = target: the molecule itself; assay: fluorescence excitation spectra, FRET within the oligomer
Experimental: Absorption/Fluorescence Spectra and Extinction Coefficients—Fluorescence spectra were taken with a Fluorolog spectrofluorimeter (Spex Industries, Edison, N.J.). Absorbance spectra of proteins were taken with a Cary ITV-V is spectrophotometer. […] Corrections were included in the quantum yield calculation for the refractive index difference between ethanol and water. For extinction coefficient determination, native protein absorbance was measured with the spectrophotometer, and protein concentration was measured by the BCA method (Pierce).

[5] = target: the molecule itself; assay: analytical equilibrium centrifugation; model in which the tetramer dimerizes into an octamer
Experimental: The data were analyzed globally at 10,000, 14,000, and 20,000 rpm by nonlinear least-squares analysis using the Origin software package (Beckman). The goodness of fit was evaluated on the basis of the magnitude and randomness of the residuals, expressed as the difference between the experimental data and the theoretical curve and also by checking each of the fit parameters for physical reasonability.

[6] = target: the molecule itself; assay: analytical equilibrium ultracentrifugation, self-association
Experimental: The data were analyzed globally at 10K, 14K, and 20K rpm by nonlinear least-squares analysis using the ORIGIN software package supplied by Beckman. The goodness of fit was evaluated on the basis of the magnitude and randomness of the residuals, expressed as the difference between the experimental data and the theoretical curve and also by checking each of the fit parameters for physical reasonability.

[7] = target: the molecule itself; assay: SDS-PAGE without boiling, self-association
[8] = target: the molecule itself; assay: SDS-PAGE with and without boiling, intermolecular self-association

B1: Gal4 activation domain alone (pGAD GH without DsRed) (other, UniProt P04386 768-881, looked up)
chain: ANFNQSGNIADSSLSFTFTNSSNGPNLITTQTNSQALSQPIASSNVHDNFMNNEITASKIDDGNNSKPLSPGWTDQTAYNAFGITTGMFNTTTMDDVYNYLFDDEDTPPNPKKE
notes: range 768-881; Negative control of the two hybrid assay
- binding result [1]: no binding

B2: DsRed-I125R (other)
chain: MRGSHHHHHHGMASMTGGQQMGRDLYDDDDKDPMRSSKNVIKEFMRFKVRMEGTVNGHEFEIEGEGEGRPYEGHNTVKLKVTKGGPLPFAWDILSPQFQYGSKVYVKHPADIPDYKKLSFPEGFKWERVMNFEDGGVVTVTQDSSLQDGCFIYKVKFRGVNFPSDGPVMQKKTMGWEASTERLYPRDGVLKGEIHKALKLKDGGHYLVEFKSIYMAKKPVQLPGYYYVDSKLDITSHNEDYTIVEQYERTEGRHHLFL
notes: Protomer
- binding result [2]: binds

B3: DsRed I125K (other)
chain: B2 chain with R158K
notes: Protomer; mixture of dimer and tetramer
- binding result [3]: binds

B4: T1 (Discosoma sp. variant fast T1 red fluorescent protein) (other)
chain: B2 chain with R35A, K38E, N39D, T54S, H74T, N75Q, V77A, C150S, R158I, T250A
notes: Protomer of a tetramer; also called fast tetramer T1; DsRed-Express
- binding result [4]: binds

B5: T1 DsRed-I125R (other)
chain: B2 chain with R35A, K38E, N39D, T54S, H74T, N75Q, V77A, C150S, T250A
notes: Protomer; forms a dimer; also called T1-I125R
- binding result [2]: binds

B6: DsRed obligate tetramer (polyHis-tagged) (other)
chain: B2 chain with R158I
notes: The tetramer as a unit, for the fitted tetramer-to-octamer dissociation constant; also called tetramer of polyHis-tagged DsRed
- Kd [5]: 39 µM

B7: dimer2 (Discosoma variant red fluorescent protein) (other)
chain: MRGSHHHHHHGMASMTGGQQMGRDLYDDDDKDPMVASSEDVIKEFMRFKVRMEGSVNGHEFEIEGEGEGRPYEGTQTAKLKVTKGGPLPFAWDILSPQFQYGSKAYVKHPADIPDYKKLSFPEGFKWERVMNFEDGGVVTVTQDSSLQDGTLIYKVKFRGTNFPPDGPVMQKKTMGWEASTERLYPRDGVLKGEIHQALKLKDGGHYLVEFKTIYMAKKPVQLPGYYYVDTKLDITSHNEDYTIVEQYERSEGRHHLFL
notes: Protomer; forms an AC dimer
- binding result [6]: binds

B8: tandem DsRed (tDsRed) (other)
chain: MRGSHHHHHHGMASMTGGQQMGRDLYDDDDKDPMRSSKNVIKEFMRFKVRMEGTVNGHEFEIEGEGEGRPYEGHNTVKLKVTKGGPLPFAWDILSPQFQYGSKVYVKHPADIPDYKKLSFPEGFKWERVMNFEDGGVVTVTQDSSLQDGCFIYKVKFIGVNFPSDGPVMQKKTMGWEASTERLYPRDGVLKGEIHKALKLKDGGHYLVEFKSIYMAKKPVQLPGYYYVDSKLDITSHNEDYTIVEQYERTEGRHHLFLGSTSGSGKPGSGEGSTKGMRSSKNVIKEFMRFKVRMEGTVNGHEFEIEGEGEGRPYEGHNTVKLKVTKGGPLPFAWDILSPQFQYGSKVYVKHPADIPDYKKLSFPEGFKWERVMNFEDGGVVTVTQDSSLQDGCFIYKVKFIGVNFPSDGPVMQKKTMGWEASTERLYPRDGVLKGEIHKALKLKDGGHYLVEFKSIYMAKKPVQLPGYYYVDSKLDITSHNEDYTIVEQYERTEGRHHLFL
- binding result [7]: binds

B9: tandem DsRed-I125R (tDsRed-I125R) (other)
chain: B8 chain with I158R, I401R
- binding result [8]: no binding
